T1: PDGFR-beta extracellular domain construct D1 (human)
T1 chain: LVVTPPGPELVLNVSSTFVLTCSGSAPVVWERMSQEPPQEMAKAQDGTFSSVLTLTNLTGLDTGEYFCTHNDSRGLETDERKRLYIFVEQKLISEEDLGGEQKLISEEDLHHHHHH

T2: Macaca fascicularis PDGFRb.mmh (Macaca fascicularis)
T2 construct: Soluble monomeric construct; also called mfPDGFRb.mmh
T2 chain: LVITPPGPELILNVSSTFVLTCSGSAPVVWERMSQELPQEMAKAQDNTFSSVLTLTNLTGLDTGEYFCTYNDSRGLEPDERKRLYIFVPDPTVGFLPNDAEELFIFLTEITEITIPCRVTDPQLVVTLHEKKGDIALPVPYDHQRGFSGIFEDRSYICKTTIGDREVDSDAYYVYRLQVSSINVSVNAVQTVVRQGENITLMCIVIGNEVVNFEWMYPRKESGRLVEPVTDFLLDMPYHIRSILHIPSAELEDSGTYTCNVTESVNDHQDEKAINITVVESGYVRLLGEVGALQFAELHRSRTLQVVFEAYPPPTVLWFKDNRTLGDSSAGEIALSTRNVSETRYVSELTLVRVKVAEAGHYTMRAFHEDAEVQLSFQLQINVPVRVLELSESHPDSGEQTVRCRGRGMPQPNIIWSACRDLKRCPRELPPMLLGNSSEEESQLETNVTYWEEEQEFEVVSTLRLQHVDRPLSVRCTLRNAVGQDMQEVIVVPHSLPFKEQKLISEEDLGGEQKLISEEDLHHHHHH


Tests used:
hPDGFRb.mmh [1] = biological target: T3, hPDGFRb.mmh (human, UniProt P09619 33-531); experiment: blocking ELISA, biot-hPDGFRb.mmh to coated PDGF-BB
T3 construct: Soluble monomeric construct; also called soluble human PDGFR-beta.mmh

hPDGFRb.mmh [2] = biological target: T3, hPDGFRb.mmh; experiment: Octet BLI cross-competition, 25 C; hPDGFRb.mmh on anti-Penta-His tips pre-saturated with mAb-1 H4H3107S (row 7)
Description: (§1) A cross-competition assay was conducted to assess the ability of select antibodies to compete with one another for binding to human PDGFR-beta. […] Each PDGFR-beta.mmh-coated sensor tip was saturated for 5 min with a first anti-PDGFR-beta antibody (Mab #1; 50 μg/mL). Next, each sensor tip was saturated with a solution of a second anti-PDGFR-beta antibody (Mab #2). The real time response of Mab #2 binding to PDGR-beta.mmh pre-complexed with Mab #1 was then monitored. All assays were performed at 25° C. with a flow rate of 1000 rpm on an Octet RED384 biosensor in Octet HBST buffer according to manufacturer's instructions (ForteBio Corp., Menlo Park, Calif.). Results are illustrated in FIG. 2.

hPDGFRb.mmh [3] = biological target: T3, hPDGFRb.mmh; experiment: Octet BLI cross-competition, 25 C; hPDGFRb.mmh on anti-Penta-His tips pre-saturated with mAb-1 H4H3094P (row 5)
Description: as §1

hPDGFRb.mmh [4] = biological target: T3, hPDGFRb.mmh; experiment: Octet BLI cross-competition, 25 C; hPDGFRb.mmh on anti-Penta-His tips pre-saturated with mAb-1 H4H3099S (row 6)
Description: as §1

[5] = biological target: T1, PDGFR-beta extracellular domain …; experiment: SPR, mAb captured, construct as analyte
Description: Four different anti-PDGFR-beta antibodies were tested for binding to the various constructs by surface plasmon resonance (Biacore). Briefly, 150-200 RU's of anti-PDGFR beta antibody was captured via an anti-human Fc CM5 chip. Next, the individual domain constructs, or full-length PDGFR beta, was applied over the antibody-bound surface at a concentration of 50nM. The ability of the various antibodies to bind to the various domain constructs was measured. (−)=No binding observed; (+)=Binding observed; ND=Not determined.

hPDGFRb.mmh [6] = biological target: T3, hPDGFRb.mmh; experiment: SPR, mAb captured, 37 C
Description: (§2) Antibodies, expressed as either mouse Fc (prefix H1M; H2M) or human Fc (prefix H4H), were captured on their respective anti-Fc sensor surfaces (Mab capture format). […] Kinetic association (kₐ) and dissociation (kd) rate constants were determined by processing and fitting the data to a 1:1 binding model using Scrubber 2.0 curve fitting software.

human PDGFRb.hFc = biological target: T4, human PDGFRb.hFc (human); experiment: SPR, mAb captured, 37 C
T4 construct: Soluble dimeric construct with human Fc; also called hPDGFRb.hFc
Description: as §2

[7] = biological target: T2, Macaca fascicularis PDGFRb.mmh; experiment: SPR, mAb captured, 37 C
Description: as §2

[8] = biological target: T5, full length human PDGFR-beta on HEK293 cells (human, UniProt P09619 33-1106); experiment: cell-based or functional assay
hPDGFRb.mmh [9] = biological target: T3, hPDGFRb.mmh; experiment: Octet BLI cross-competition, 25 C; hPDGFRb.mmh on anti-Penta-His tips pre-saturated with mAb-1 H4H3365N (row 2)
Description: as §1

hPDGFRb.mmh [10] = biological target: T3, hPDGFRb.mmh; experiment: Octet BLI cross-competition, 25 C; hPDGFRb.mmh on anti-Penta-His tips pre-saturated with mAb-1 H4H3374N (row 3)
Description: as §1

hPDGFRb.mmh [11] = biological target: T3, hPDGFRb.mmh; experiment: Octet BLI cross-competition, 25 C; hPDGFRb.mmh on anti-Penta-His tips pre-saturated with mAb-1 Control I (row 1)
Description: as §1

[12] = biological target: T5, full length human PDGFR-beta on HEK293 …; experiment: cell-based or functional assay; remark: listed apart in the source

Row | % Maximum Blocking (hPDGFRb.mmh [1]) | IC50 (hPDGFRb.mmh [1]) | Response of mAb-2 Binding to hPDGFRβ.mmh Pre-Complexed with mAb-1 (nm) (hPDGFRb.mmh [2]) | Response of mAb-2 Binding to hPDGFRβ.mmh Pre-Complexed with mAb-1 (nm) (hPDGFRb.mmh [3]) | binding result [5] | Kd (hPDGFRb.mmh [6]) | koff (hPDGFRb.mmh [6]) | kon (hPDGFRb.mmh [6]) | t1/2 (hPDGFRb.mmh [6]) | Kd (human PDGFRb.hFc) | koff (human PDGFRb.hFc) | kon (human PDGFRb.hFc) | t1/2 (human PDGFRb.hFc) | Kd [7] | koff [7] | kon [7] | t1/2 [7] | Percent Internalization (Relative to Control I) [8] | IC50, blocking PDGF-BB (250 pM) activation, SRE-luciferase [12] | IC50, blocking PDGF-DD (400 pM) activation, SRE-luciferase [12] | Binder | other results
1 | 86% | 0.3 nM | 0 nm | 0.27 nm | no binding (tested: 50nM) | 1.93 nM | 0.000355 s⁻¹ | 184000 M⁻¹ s⁻¹ | 33 min | 0.197 nM | 4.85e-05 s⁻¹ | 247000 M⁻¹ s⁻¹ | 238 min | 2.04 nM | 0.00039 s⁻¹ | 191000 M⁻¹ s⁻¹ | 30 min | 79% | 5e-10 M | 4.8e-10 M | H4H3305N (antibody, human IgG4, V domains shown, human IgG4 Fc (H4H prefix)) VH: QLQLQESGPGLVKPSETLSLTCIVSGGSISSSSYYWGWIRQPPGKGLEWIGSLYYSGITFYNPSLKSRVTISVDTSKNQFSLTLTSVTAADTAVFYCARHRVMASSPFDHWGQGTLVTVSS VL: not shown | Response of mAb-2 Binding to hPDGFRβ.mmh Pre-Complexed with mAb-1 (nm) (hPDGFRb.mmh [4]): 0 nm; Response of mAb-2 Binding to hPDGFRβ.mmh Pre-Complexed with mAb-1 (nm) (hPDGFRb.mmh [9]): 0.26 nm; Response of mAb-2 Binding to hPDGFRβ.mmh Pre-Complexed with mAb-1 (nm) (hPDGFRb.mmh [10]): 0.24 nm; Response of mAb-2 Binding to hPDGFRβ.mmh Pre-Complexed with mAb-1 (nm) (hPDGFRb.mmh [11]): 0.22 nm
2 | 85% | 0.12 nM | 0.23 nm |  | no binding (tested: 50nM) | 6.58 nM | 0.00147 s⁻¹ | 223000 M⁻¹ s⁻¹ | 8 min | 0.877 nM | 0.000248 s⁻¹ | 283000 M⁻¹ s⁻¹ | 47 min | 6.69 nM | 0.0017 s⁻¹ | 253000 M⁻¹ s⁻¹ | 7 min | 77% | 4e-10 M | 3.9e-10 M | H4H3094P (antibody, human IgG4, V domains shown, also called H4H3394P) VH: EVQLVESGGGLVQPGGSLRLSCAASGFTFSSYWMSWVRQAPGKGLEWVANMNQDGSETHYVDSVKGRLSISRDNAKKSLFLHMNSLRAEDTAVYFCARDLVPPRQDDYYYYFGMDVWGHGTTVTVSS VL: DIQMTQSPSTLSASVGDRVTITCRASQSISDWLAWYQQKPGKAPKLLIFKASTLESGVPSRFSGSGSGTEFTLTISSLQPDDFATYYCQQYNSYSRTFGQGTKVEIK | Response of mAb-2 Binding to hPDGFRβ.mmh Pre-Complexed with mAb-1 (nm) (hPDGFRb.mmh [4]): 0.25 nm; Response of mAb-2 Binding to hPDGFRβ.mmh Pre-Complexed with mAb-1 (nm) (hPDGFRb.mmh [10]): 0.02 nm; Response of mAb-2 Binding to hPDGFRβ.mmh Pre-Complexed with mAb-1 (nm) (hPDGFRb.mmh [11]): -0.01 nm
3 | 91% | 0.097 nM |  | 0.35 nm | no binding (tested: 50nM) | 2.39 nM | 0.000639 s⁻¹ | 267000 M⁻¹ s⁻¹ | 18 min | 0.193 nM | 0.000105 s⁻¹ | 540000 M⁻¹ s⁻¹ | 110 min | 2.17 nM | 0.000652 s⁻¹ | 300000 M⁻¹ s⁻¹ | 18 min | 88% | 2.1e-10 M | 1.9e-10 M | H4H3099S (antibody, human IgG4, V domains shown, human IgG4 Fc (H4H prefix)) VH: QITLKESGPTLVKPTQTLTLTCTFSGFSLTTTGVGVGWIRQPPGKALEWLALIYWNDLKRYSPSLKNRLTITKDTSRHQVVLTMTNMDPMDTATYYCAHRPLYYGSGSGWFDPWGPGTTVTVSS VL: not shown | Response of mAb-2 Binding to hPDGFRβ.mmh Pre-Complexed with mAb-1 (nm) (hPDGFRb.mmh [9]): 0.33 nm; Response of mAb-2 Binding to hPDGFRβ.mmh Pre-Complexed with mAb-1 (nm) (hPDGFRb.mmh [10]): 0.31 nm; Response of mAb-2 Binding to hPDGFRβ.mmh Pre-Complexed with mAb-1 (nm) (hPDGFRb.mmh [11]): 0.28 nm
4 | 86% | 0.12 nM | 0.24 nm | 0 nm | no binding (tested: 50nM) | 1.84 nM | 0.00126 s⁻¹ | 685000 M⁻¹ s⁻¹ | 9 min | 0.178 nM | 0.000291 s⁻¹ | 1.63e+06 M⁻¹ s⁻¹ | 40 min | 2.63 nM | 0.00177 s⁻¹ | 670000 M⁻¹ s⁻¹ | 7 min | 81% | 1.3e-10 M | 1.5e-10 M | H4H3374N (antibody, human IgG4, V domains shown, human IgG4 Fc (H4H prefix)) VH: QLQLQESGPGLVKPSETLSLTCTVSGGSITSSSYYWGWIRQPPGKGLEWIGSIYYRGSTNYNPSLKSRVTISVDSSKNQFYLKVSSVTAVDTAVYYCARQNGAARPSWFDPWGQGTLVTVSS VL: EIVLTQSPDTISLSPGERATLSCRASQSISSIYLAWYQQKPGQAPRLLIYGASSRVTGIPDRFSVSGSGTDFTLTISRLEPEDFAVYYCQHYGISPFTFGPGTKVDIR | Response of mAb-2 Binding to hPDGFRβ.mmh Pre-Complexed with mAb-1 (nm) (hPDGFRb.mmh [4]): 0.27 nm; Response of mAb-2 Binding to hPDGFRβ.mmh Pre-Complexed with mAb-1 (nm) (hPDGFRb.mmh [9]): 0.01 nm

From patent US20170210813A1 (Regeneron, published 2017)
